For experiment [1], the target named is T1, His-tagged FcγRIIIa (V158) (human, UniProt P08637 17-208).
T1 construct: not shown: His tag
Briefly: BLI (Octet QK384), His-tagged FcgRIIIa (V158) on anti-Penta-HIS tips, antibody 500 nM to 15.6 nM in solution, global 1:1 fit. The protocol: (§1) All measurements were performed at 25° C. with agitation at 1000 rpm. […] Sensograms were referenced for buffer effects and then fitted using the Octet QK384 user software (Pall ForteBio, USA). Kinetic responses were subjected to a global fitting using a one site binding model to obtain values for association (Kₒₙ), dissociation (Koff) rate constants and the equilibrium dissociation constant (KD). Only curves that could be reliably fitted with the software (R²>0.90) were included in the analysis.
Background: Biolayer interferometry detects binding as a change in optical thickness at a sensor tip.

Experiment [2] deals with T2, human HER3 expressed on cells (HEK293 HER3 O/E cells) (human, UniProt P21860 20-1342).
T2 construct: Also used here for HER3 on U2OS cells of the PathHunter kit and on cancer cell lines; also called HEK293 cells transfected with vector encoding human HER3; human HER3-expressing cells
The experiment in a line: flow cytometry, HEK293 cells overexpressing human HER3, 20 ug/ml antibody, FITC anti-Fc secondary; same antibody on WT HEK293: 1.91.

Experiment [3] concerns the target T2, human HER3 expressed on cells (HEK293 …). Briefly: flow cytometry on HEK293T HER3 O/E cells, 10 ug antibody as printed, FITC-conjugated anti-Fc secondary. The protocol:
The cells were washed with buffer (PBS with 2 mM EDTA and 0.5% BSA) and resuspended in FITC-conjugated anti-FC antibody (Invitrogen, USA) at 10 μg/ml for 20 min at 4° C. Cells were washed again and resuspended in 200 μL of FACS flow buffer (PBS with 5 mM EDTA) for flow cytometric analysis using MACSQuant 10 (Miltenyi Biotec, Germany). Unstained WT and transfected HEK293 cells were included in the analysis as negative controls. After acquisition, all raw data were analyzed using Flowlogic software. Cells were gated using forward and side scatter profile percentage of positive cells was determined for native and overexpressing cell populations.
A general note: In flow cytometry, cells or beads pass a laser one at a time.

The target is the same in experiment [4]. The experiment in a line: flow cytometry, HEK293 cells overexpressing human HER3, 20 ug/ml antibody, FITC anti-Fc secondary; same antibody on WT HEK293: 8.15.
In experiment [5] the target is T3, His-tagged human HER3 (human, UniProt P21860 20-643).
T3 construct: Antigen of the BLI experiments and of the HER2-Fc dimerisation ELISA; also called HER3 His; not shown: His tag
The experiment in a line: BLI (Octet QK384), antibody captured on AHC sensors, His-tagged human HER3 in solution, without NRG1.

Experiment [6] has as its target T3, His-tagged human HER3. The experiment in a line: BLI (Octet QK384), antibody on anti-human IgG capture tips, His-tagged human HER3 in solution, global 1:1 fit, R^2 = 0.9955, kon Error 5.62E+03; Response -0.0012 / 0.1507 / 0.3396 / 0.4384 at 35 / 69 / 139 / 278 nM. The protocol:
as §1, with “The anti-HER3 antibody clones in IgG1 format were analysed for binding affinity to human HER3. Bio-Layer Interferometry (BLI) experiments were performed using the Octet QK384 system (ForteBio). anti-Human IgG Capture (AHC) Octet sensor tips (Pall ForteBio, USA) were used to anti-HER3 antibodies (25 nM). All” for “All”

In experiment [7] the target is T3, His-tagged human HER3. The experiment in a line: BLI (Octet QK384), antibody on anti-human IgG capture tips, His-tagged human HER3 in solution, global one-site fit. In a few lines:
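The antibodies, in IgG1 format at 25 nM, sat on anti-human IgG capture tips, and HER3 binding was followed at 25° C under 1000 rpm agitation.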

Experiment [8] addresses T3, His-tagged human HER3. The experiment in a line: BLI (Octet QK384), antibody on anti-human IgG capture tips, His-tagged human HER3 35-278 nM, global 1:1 fit. The protocol: as §1, with “The anti-HER3 antibody clones in IgG1 format were analysed for binding affinity to human HER3. Bio-Layer Interferometry (BLI) experiments were performed using the Octet QK384 system (ForteBio). anti-Human IgG Capture (AHC) Octet sensor tips (Pall ForteBio, USA) were used to anti-HER3 antibodies (25 nM). All” for “All”

The target in experiment [9] is T3, His-tagged human HER3. Briefly: BLI (Octet QK384), antibody on anti-human IgG capture tips, His-tagged human HER3 in solution, global 1:1 fit, R^2 = 0.9957, kon Error 3.75E+03; Response 0.0006 / 0.0697 / 0.1929 / 0.3524 at 35 / 69 / 139 / 278 nM. The protocol: as §1, with “The anti-HER3 antibody clones in IgG1 format were analysed for binding affinity to human HER3. Bio-Layer Interferometry (BLI) experiments were performed using the Octet QK384 system (ForteBio). anti-Human IgG Capture (AHC) Octet sensor tips (Pall ForteBio, USA) were used to anti-HER3 antibodies (25 nM). All” for “All”

Experiment [10] has as its target T3, His-tagged human HER3. The experiment in a line: BLI (Octet QK384), antibody on anti-human IgG capture tips, His-tagged human HER3 35-278 nM, global 1:1 fit; kdis Error 1.27E-04. The protocol:
as §1, with “The anti-HER3 antibody clones in IgG1 format were analysed for binding affinity to human HER3. Bio-Layer Interferometry (BLI) experiments were performed using the Octet QK384 system (ForteBio). anti-Human IgG Capture (AHC) Octet sensor tips (Pall ForteBio, USA) were used to anti-HER3 antibodies (25 nM). All” for “All”

In experiment [11] the target is T3, His-tagged human HER3. The experiment in a line: BLI (Octet QK384), antibody on anti-human IgG capture tips, His-tagged human HER3 in solution, global 1:1 fit, R^2 = 0.9949, kon Error 6.34E+03; Response 0.0096 / 0.1318 / 0.3036 / 0.3995 at 35 / 69 / 139 / 278 nM. The protocol:
as §1, with “The anti-HER3 antibody clones in IgG1 format were analysed for binding affinity to human HER3. Bio-Layer Interferometry (BLI) experiments were performed using the Octet QK384 system (ForteBio). anti-Human IgG Capture (AHC) Octet sensor tips (Pall ForteBio, USA) were used to anti-HER3 antibodies (25 nM). All” for “All”

Experiment [12] concerns the target T3, His-tagged human HER3. The experiment in a line: BLI (Octet QK384), antibody on anti-human IgG capture tips, His-tagged human HER3 35-278 nM, global 1:1 fit; kdis Error 1.17E-04. The protocol:
as §1, with “The anti-HER3 antibody clones in IgG1 format were analysed for binding affinity to human HER3. Bio-Layer Interferometry (BLI) experiments were performed using the Octet QK384 system (ForteBio). anti-Human IgG Capture (AHC) Octet sensor tips (Pall ForteBio, USA) were used to anti-HER3 antibodies (25 nM). All” for “All”

Positions count from the first letter of the chain named.

B1: 10D1 comprising GASDALIE and LCKC substitutions in CH2 region (antibody, human IgG1, kappa)
heavy: DVQLQESGPDLVKPSQSLSLTCTVTGYSITSGYSWHWIRQFPGNKLEWMGSIHYSGGTNYNPSLKSRISITRDTSKNQFFLQLNSVTTEDTATYFCARMTTAPRYPFDYWGQGTTLTVSSASTKGPSVFPLAPSSKSTSGGTAALGCLVKDYFPEPVTVSWNSGALTSGVHTFPAVLQSSGLYSLSSVVTVPSSSLGTQTYICNVNHKPSNTKVDKKVEPKSCDKTHTCPPCPAPELLAGPDVFCFPPKPKDTLMISRTPEVTCVVVDVSHEDPEVKFNWYVDGVEVHNAKTKPREEQYNSTYRVVSVLTVLHQDWLNGKEYKCKVSNKALPLPEECTISKAKGQPREPQVYTLPPSRDELTKNQVSLTCLVKGFYPSDIAVEWESNGQPENNYKTTPPVLDSDGSFFLYSKLTVDKSRWQQGNVFSCSVMHEALHNHYTQKSLSLSPGK
light: DIVMTQSQKFMSTSVGDRVSVTCKASQIVGSNVAWYQQKPGQSPKPLIYSASYRYSGVPDRFTASGSGTDFTLTITNVQSEDLAEYFCQQYSSHPLTFGAGTKLELKRTVAAPSVFIFPPSDEQLKSGTASVVCLLNNFYPREAKVQWKVDNALQSGNSQESVTEQDSKDSTYSLSSTLTLSKADYEKHKVYACEVTHQGLSSPVTKSFNRGEC
notes: also called Fc engineered 10D1 variant
As to B1, binding in [1] was put at a Kd of 34 nM.

B2: LJM716 (antibody, V domains shown)
VH: EVQLLESGGGLVQPGGSLRLSCAASGFTFSSYAMSWVRQAPGKGLEWVSAINSQGKSTYYADSVKGRFTISRDNSKNTLYLQMNSLRAEDTAVYYCARWGDEGFDIWGQGTLVTVSS
VL: DIQMTQSPSSLSASVGDRVTITCRASQGISNWLAWYQQKPGKAPKLLIYGASSLQSGVPSRFSGSGSGTDFTLTISSLQPEDFATYYCQQYSSFPTTFGQGTKVEIK
In the case of B2, the “% Parent (HER3 positive)” value in [2] stood at 99.5%. Also, in [3], the “% Parent (HER3 positive)” value stood at 74.4%. Moreover, in [4], the “% Parent (HE3 positive)” value worked out at 98.7%. Moreover, in the experiment with His-tagged human HER3 [5], the Kd (in general, the constant that tells how readily two partners part at equilibrium) is below 0.001 nM; the off-rate (koff) (usually the first-order rate constant of dissociation) was below 1e-07 s⁻¹; the kon (usually the second-order rate constant of association) came to 79800 M⁻¹ s⁻¹.

B3: anti-HER3 clone 10D1_c75 IgG1 (antibody, V domains shown)
VH: DVQLQEWGAGLLKPSETLSLTCAVTGYSITSGYSWHWIRQFPGNGLEWIGSIHYSGGTNYNPTLKSRITISRDTSKNQFSLKLSSVTAADTAVYFCARMTTAPRYPFDYWGQGTLVTVSS
VL: DIVMTQSPSSLSASVGDLVTITCKASQIVGSNVAWYQMKPGKSPKPLIYSASYLYFGVPSRFSGSGSGTDFTLTISSLQPEDVAEYFCQQYSSHPLTFGPGTKVEIKR
notes: Humanised 10D1 variant, IgG1/kappa
In turn, B3 showed a kon in the experiment with His-tagged human HER3 [6] of 163000 M⁻¹ s⁻¹. In the experiment with His-tagged human HER3 [7], the Kd was below 0.001 nM. Moreover, the koff with His-tagged human HER3 [8] was below 1e-07 s⁻¹.

B4: anti-HER3 clone 10D1_c85o1 IgG1 (antibody, V domains shown)
VH: B3 VH with N44K, H53R, T63S, S84G, M99E
VL: B3 VL with L18R, M38Q, S52R, L54Q, F56S, S60F, E85T, F87Y
notes: Humanised 10D1 variant, IgG1/kappa; also called 10D1_c8501
On to B4, for which the kon in the experiment with His-tagged human HER3 [9] stood at 93600 M⁻¹ s⁻¹. For the same molecule, the Kd in the experiment with His-tagged human HER3 [7] came to 18.2 nM. The koff with His-tagged human HER3 [10] was found to be 0.0017 s⁻¹.

B5: anti-HER3 clone 10D1_c77 IgG1 (antibody, V domains shown)
VH: B3 VH with T63S
VL: B3 VL with D1V, L18R, S31P, M38Q, L54G, F56S, G57D, S93T
notes: as for B3
B5 came in with a Kd with His-tagged human HER3 [7] of 1.93 nM. This molecule also displayed a kon in the experiment with His-tagged human HER3 [11] of 179000 M⁻¹ s⁻¹. The koff in the experiment with His-tagged human HER3 [12] was 0.000346 s⁻¹.

These data come from patent US20250122303A1 (HUMMINGBIRD BIOSCIENCE PTE, published 2025).
